Assay results taken from patent publication US10562947B2, “Compositions and methods for preventing or treating diseases, conditions or processes characterized by aberrant fibroblast proliferation and extracellular matrix deposition” (MOERAE MATRIX, INC., priority 2011, dated 2020).

Tests used:
Assay in all cases: Kinase Profiling Assay
Assay type in all cases: biochemical
Details in all cases: 100 μM peptide
CK1γ2(h) = CK1γ2(h) (Homo sapiens, UniProt P78368)
Summary of the method: (§1)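 Specificity of the MK2-directed peptides is examined by measuring activity of 266 human kinases, every determination performed in duplicate.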

c-RAF(h) = c-RAF(h) (Homo sapiens, UniProt P04049)
Summary of the method: as §1

PAK6(h) = PAK6(h) (Homo sapiens, UniProt Q9NQU5)
Summary of the method: as §1

CK1γ1(h) = CK1γ1(h) (Homo sapiens, UniProt Q9HCP0)
Summary of the method: as §1

Plk1(h) = biological target: T1, Plk1(h) (Homo sapiens, UniProt P53350)
T1 construct: purchased Millipore (IC50 Profiler Express service)
Summary of the method: as §1

CK1γ2(h), sequence (P78368 whole entry): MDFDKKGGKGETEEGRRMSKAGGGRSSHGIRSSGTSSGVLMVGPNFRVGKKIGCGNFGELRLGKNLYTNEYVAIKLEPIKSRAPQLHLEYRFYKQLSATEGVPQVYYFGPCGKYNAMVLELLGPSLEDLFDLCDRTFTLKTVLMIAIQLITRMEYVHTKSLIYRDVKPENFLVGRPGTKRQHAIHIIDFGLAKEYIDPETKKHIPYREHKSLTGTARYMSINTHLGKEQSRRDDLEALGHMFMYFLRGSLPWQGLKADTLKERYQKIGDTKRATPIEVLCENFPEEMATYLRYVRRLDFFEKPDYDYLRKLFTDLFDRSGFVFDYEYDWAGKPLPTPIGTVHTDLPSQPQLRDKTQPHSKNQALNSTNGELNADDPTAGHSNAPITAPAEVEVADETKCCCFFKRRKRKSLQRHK
T1 sequence (P53350 whole entry): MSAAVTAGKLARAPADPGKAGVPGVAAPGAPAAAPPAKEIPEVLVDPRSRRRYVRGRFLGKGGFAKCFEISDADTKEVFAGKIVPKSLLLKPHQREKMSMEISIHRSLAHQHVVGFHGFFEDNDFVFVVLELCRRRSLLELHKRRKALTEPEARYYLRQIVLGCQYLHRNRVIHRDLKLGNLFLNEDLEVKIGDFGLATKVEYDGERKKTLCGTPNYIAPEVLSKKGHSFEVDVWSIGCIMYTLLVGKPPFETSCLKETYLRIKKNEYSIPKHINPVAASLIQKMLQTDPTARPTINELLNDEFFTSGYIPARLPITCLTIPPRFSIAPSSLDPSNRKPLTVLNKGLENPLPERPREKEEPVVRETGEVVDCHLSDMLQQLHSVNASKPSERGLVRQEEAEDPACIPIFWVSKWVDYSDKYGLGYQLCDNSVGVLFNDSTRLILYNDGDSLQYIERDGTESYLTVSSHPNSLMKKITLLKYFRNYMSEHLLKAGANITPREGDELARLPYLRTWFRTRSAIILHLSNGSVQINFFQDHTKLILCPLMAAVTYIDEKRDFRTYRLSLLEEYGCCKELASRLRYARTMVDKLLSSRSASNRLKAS
PAK6(h), sequence (Q9NQU5 whole entry): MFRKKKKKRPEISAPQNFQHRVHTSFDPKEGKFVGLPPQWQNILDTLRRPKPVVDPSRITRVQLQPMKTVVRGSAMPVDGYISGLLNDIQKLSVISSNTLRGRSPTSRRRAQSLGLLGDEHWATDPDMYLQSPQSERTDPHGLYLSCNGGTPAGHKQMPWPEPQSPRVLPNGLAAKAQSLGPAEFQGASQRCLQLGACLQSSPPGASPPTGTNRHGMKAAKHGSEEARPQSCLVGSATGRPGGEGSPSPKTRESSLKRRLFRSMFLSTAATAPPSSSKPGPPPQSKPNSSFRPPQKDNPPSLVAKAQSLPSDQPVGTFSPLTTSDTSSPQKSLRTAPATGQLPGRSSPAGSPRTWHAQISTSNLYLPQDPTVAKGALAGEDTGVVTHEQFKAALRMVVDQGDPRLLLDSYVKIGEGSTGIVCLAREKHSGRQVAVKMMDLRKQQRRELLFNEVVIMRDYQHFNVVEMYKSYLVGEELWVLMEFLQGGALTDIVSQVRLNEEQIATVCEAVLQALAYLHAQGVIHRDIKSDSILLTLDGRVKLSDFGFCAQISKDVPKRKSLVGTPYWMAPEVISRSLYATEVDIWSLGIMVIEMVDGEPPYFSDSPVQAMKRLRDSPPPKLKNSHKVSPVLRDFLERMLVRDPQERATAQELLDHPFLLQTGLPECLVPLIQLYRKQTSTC
CK1γ1(h), sequence (Q9HCP0 whole entry): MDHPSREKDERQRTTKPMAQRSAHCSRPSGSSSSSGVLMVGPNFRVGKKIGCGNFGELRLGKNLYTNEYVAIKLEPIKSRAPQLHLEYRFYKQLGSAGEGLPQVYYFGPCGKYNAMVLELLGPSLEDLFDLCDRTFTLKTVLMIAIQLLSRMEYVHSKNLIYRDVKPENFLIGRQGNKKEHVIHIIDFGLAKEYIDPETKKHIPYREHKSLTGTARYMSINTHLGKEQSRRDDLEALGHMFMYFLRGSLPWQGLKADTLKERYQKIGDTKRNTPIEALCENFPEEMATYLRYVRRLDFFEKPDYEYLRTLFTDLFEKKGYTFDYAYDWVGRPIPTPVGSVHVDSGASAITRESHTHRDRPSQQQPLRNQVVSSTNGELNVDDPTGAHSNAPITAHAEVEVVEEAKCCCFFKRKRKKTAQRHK

FAKLAARLYRKALARQLGVAA [MMI-0300]
CK1γ2(h) % activity (CK1γ2(h)): 123%

HRRIKAWLKKIKALARQLGVAA (Mammalian) [MMI-0500]
c-RAF(h) % activity (c-RAF(h)): 19%

KAFAKLAARLYRKALARQLGVAA [MMI-0400]
PAK6(h) % activity (PAK6(h)): 100%

YARAAARQARAKALNRQLGVA (Mammalian) [MMI-0200]
CK1γ1(h) % activity (CK1γ1(h)): 98% | Plk1(h) % activity (Plk1(h)): 128%
